We go through 50 sequences from the supplement of paper PMC9112550, “Optimization of the antimicrobial peptide Bac7 by deep mutational scanning” (BMC Biology, 2022).

The data set concerns Escherichia coli TOP10. As to the kind of experiment: shrunken log2 fold change of peptide-encoding DNA abundance (4.5 h post-induction vs induction); higher = less antimicrobial activity (less host growth inhibition). To be noted: time post-induction: 4.5 h; library: site-saturation at positions 5, 18, 19, 20.
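Further: peptides expressed intracellularly from a pBAD plasmid library in pooled LB shake-flask culture, induced with 0.3% L-arabinose, DNA abundance read by NGS, three biological replicates, DESeq2 with apeglm shrinkage.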

Take RRIRVRPPRLPRPRPRPEPKPRP: the “shrunken log2 fold change” value is 0.13. On to RRIRERPPRLPRPRPRPEDCPRP, for which the “shrunken log2 fold change” value was -0.104.

As for RRIRVRPPRLPRPRPRPDNHPRP, the “shrunken log2 fold change” value was 0.0415. On to RRIRCRPPRLPRPRPRPREYPRP, for which the “shrunken log2 fold change” value is -0.22.

For the sequence RRIRLRPPRLPRPRPRPYHSPRP, the “shrunken log2 fold change” value is -0.018. On to RRIRPRPPRLPRPRPRPKIKPRP, for which the “shrunken log2 fold change” value was -0.0894. The same measure for RRIRFRPPRLPRPRPRPTFQPRP: -0.156; for RRIRVRPPRLPRPRPRPFWHPRP: -0.205; for RRIRNRPPRLPRPRPRPDKCPRP: -0.116. With RRIRIRPPRLPRPRPRPERNPRP, the “shrunken log2 fold change” value is 0.146. For RRIRDRPPRLPRPRPRPPRYPRP, the “shrunken log2 fold change” value was found to be 0.244. The value for RRIRIRPPRLPRPRPRPCGFPRP was -0.0835; that for RRIRHRPPRLPRPRPRPGRLPRP was 0.129. As to RRIRERPPRLPRPRPRPDCFPRP, the “shrunken log2 fold change” value turned out to be 0.316. As to RRIRPRPPRLPRPRPRPGPQPRP, the “shrunken log2 fold change” value worked out at 0.521. The same measure for RRIRCRPPRLPRPRPRPYPDPRP: -0.282. Take RRIRKRPPRLPRPRPRPVCVPRP: the “shrunken log2 fold change” value was found to be 0.573.

Regarding RRIRMRPPRLPRPRPRPMKSPRP, the “shrunken log2 fold change” value was found to be 0.0897. Regarding RRIRTRPPRLPRPRPRPKCWPRP, the “shrunken log2 fold change” value turned out to be 1.72.

For RRIRFRPPRLPRPRPRPTEAPRP, the “shrunken log2 fold change” value came out at 0.332.

Turning to RRIRWRPPRLPRPRPRPEREPRP, the “shrunken log2 fold change” value stood at 0.295.

Turning to RRIRKRPPRLPRPRPRPWWKPRP, the “shrunken log2 fold change” value is -0.103. On to RRIRERPPRLPRPRPRPFYFPRP, for which the “shrunken log2 fold change” value was found to be 0.935.

RRIRPRPPRLPRPRPRPMWIPRP: the “shrunken log2 fold change” value is -0.237.

For RRIRGRPPRLPRPRPRPVVKPRP, the “shrunken log2 fold change” value came out at 0.246. As to RRIRSRPPRLPRPRPRPWISPRP, the “shrunken log2 fold change” value was 0.181. In the case of RRIRIRPPRLPRPRPRPKQEPRP, the “shrunken log2 fold change” value worked out at 0.113.

For RRIRCRPPRLPRPRPRPLEQPRP, the “shrunken log2 fold change” value came to 0.0367. The same measure for RRIRGRPPRLPRPRPRPHSDPRP: 0.204; for RRIRFRPPRLPRPRPRPQCVPRP: -0.276. The value for RRIRARPPRLPRPRPRPVVAPRP was 0.604; that for RRIRLRPPRLPRPRPRPYHIPRP was -0.713; that for RRIRSRPPRLPRPRPRPSTKPRP was -0.00791. The value for RRIRRRPPRLPRPRPRPQHSPRP was -0.0462. Take RRIRFRPPRLPRPRPRPAHKPRP: the “shrunken log2 fold change” value came to 0.225. As to RRIRMRPPRLPRPRPRPPGDPRP, the “shrunken log2 fold change” value was 1.51.

For RRIRERPPRLPRPRPRPKIDPRP, the “shrunken log2 fold change” value was -0.0798.

Consider RRIRMRPPRLPRPRPRPQAMPRP, for which the “shrunken log2 fold change” value came to 0.318. The value for RRIRMRPPRLPRPRPRPRGMPRP was 0.861; that for RRIRMRPPRLPRPRPRPGPYPRP was -0.149; that for RRIRLRPPRLPRPRPRPFFLPRP was -0.282. In the case of RRIRNRPPRLPRPRPRPNKQPRP, the “shrunken log2 fold change” value was -0.0266. Turning to RRIRLRPPRLPRPRPRPLVWPRP, the “shrunken log2 fold change” value was found to be 0.193. For RRIRPRPPRLPRPRPRPNVDPRP, the “shrunken log2 fold change” value is -0.0229.

With RRIRQRPPRLPRPRPRPRSHPRP, the “shrunken log2 fold change” value was 0.183. For the sequence RRIRRRPPRLPRPRPRPPQDPRP, the “shrunken log2 fold change” value worked out at 1.39.

Regarding RRIRNRPPRLPRPRPRPVPLPRP, the “shrunken log2 fold change” value is -0.539. Regarding RRIRARPPRLPRPRPRPDAKPRP, the “shrunken log2 fold change” value is 0.338. As to RRIRARPPRLPRPRPRPLHGPRP, the “shrunken log2 fold change” value is 0.155. Consider RRIRIRPPRLPRPRPRPYEHPRP, for which the “shrunken log2 fold change” value is -0.0784.
